According to the domain aggregation screens of Martell et al. (2025):

Assay: soluble fraction after stress (log2 fold change); higher = more stays soluble; pooled small domains, quantitative proteomics
Settings: stress: 75 degC
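Note: 20 min heating vs room temperature control held 20 min.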

**Q.** With “HMIVLPGEELEVHIVQEGKEDGQGVAYLDDGTMVVVEGGRPYVDSFAYVAVTRVLQTGAGRIIFAHPTR” as the sequence, how does the “soluble fraction (log2)” value read?
**A.** -2.54

**Q.** Which “soluble fraction (log2)” value does the source give for “HMKKRDAEIMLQREFKLTEAIAMVRDRDIQELLPIALYFKVNINQPTAEIRYNLLNIAKSKTQEFIEAFD” here?
**A.** -2.14

**Q.** With “HMVSRVTTPGVVGKTWQETKQILKQADLTVGSLTRDGKDVTPADGDLVTAQNPSAGQAIVRGSSVDLTFDK” as the sequence, how does the “soluble fraction (log2)” value read?
**A.** 0.0104

**Q.** Which “soluble fraction (log2)” value does the source give for “HMANYYEILGVKHDATEAEIKAAYKQAAKSAHPDAGGSNEKMQEVNAAWEVLGNAQKRAEYDARMA” here?
**A.** 0.173

**Q.** For “HMKYSNDEVERDLYVRGVIYQIGDLVENKLDGTSGEVVRRGPNYVQYTDGENFYKAFLSALQEQK”, which “soluble fraction (log2)” value is on record?
**A.** -0.369

**Q.** For “HMRKTYHVDAYQDDKWWVLQVQEMPNAISQVKSLDQADEWIREAINIVSNEPEDSFDVVIIPV”, which “soluble fraction (log2)” value is on record?
**A.** -0.404

**Q.** Which “soluble fraction (log2)” value does the source give for “HMDYAQAQRQAESAIALRPDVERLRLLLIYALQKQGKLREAEQAAADAIKSGLDTPALRQARANLRP” here?
**A.** -0.732

**Q.** With “HMIISMKKGATPQEISHVRKLIEELGYKVHESQGSERMVFGAIGDERSKHRLTSLEAQPGVEKVIPILA” as the sequence, how does the “soluble fraction (log2)” value read?
**A.** 0.0278

**Q.** With “HMAVGDMISKLRTAANMSQEQFAELFGVTRQSVQKWENSFSVPELEKLIKISKYFDVSLDALVLRSDARVT” as the sequence, how does the “soluble fraction (log2)” value read?
**A.** -2.5

**Q.** Which “soluble fraction (log2)” value does the source give for “HMGGKWKAIIIYHLKNGPKRFGELRRALISSTETVLSNQLKQLEQDGLVSRQVFGTKPPLKTVYSLTDFG” here?
**A.** -3.3

**Q.** With “HMEDNKLKNEIKNELVSHLEKPYSVEDLADALKYHGSAAFKLIVQELAILERERAVVVTHDGNFKINSS” as the sequence, how does the “soluble fraction (log2)” value read?
**A.** -1.11

**Q.** Which “soluble fraction (log2)” value does the source give for “HMTDSSEILEAALKEAEDAAHEVLNGTFSVQLEPQKAYIRRLQHMLIDRMNLSSTSKGKEPYRSLLVYR” here?
**A.** -1.41

**Q.** For “HMTYNEYPEKEMQDLIDKSISQQEQAASQYGYSLGDYVTARYGFQSESDFREYVQGLAEDYMKEKI”, which “soluble fraction (log2)” value is on record?
**A.** -0.476

**Q.** For “HMVKEVKVPDVEGLTTEEAIKELKKYGLAYTTKSEENTDIEEGKVIRTEPKKGSTKVKGSTVTIIESSG”, which “soluble fraction (log2)” value is on record?
**A.** 0.451

**Q.** Which “soluble fraction (log2)” value does the source give for “HMDDVYMVPVKDIAINDLKQEFEKLGIPNIQNTIPDKDLNFFIVRKDDLALVNYAIEKTMER” here?
**A.** 0.0193

**Q.** With “HMTHANAALTPRHRLKVARLVVDEGWPVSEVAARFQVSWPTVKRWADRYRAGQSMQDRSSRP” as the sequence, how does the “soluble fraction (log2)” value read?
**A.** -1.96

**Q.** With “HMGMSMNEFLNNRLEQLAVEAVDKSSLGEEIFFYAEPATINLFKDAVDEDEYKVVFPVLKSIIEVEQKLSR” as the sequence, how does the “soluble fraction (log2)” value read?
**A.** -1.24

**Q.** Which “soluble fraction (log2)” value does the source give for “HMSQRINLNSASIEDMQSLDISNEKIDSIIDYRNRYGNIHNIYELLKIPGITIGDIHSIRNAVTVEIPH” here?
**A.** -0.104

**Q.** For “HMNNFNVVVGKAIKNSFNTRENYITINAGKVLGIKTDMGVINDKGIVGIVEKTSKDFATIQSVLNIKS”, which “soluble fraction (log2)” value is on record?
**A.** 0.177

**Q.** For “HMDAQEAAWARKMMETLPEKQKLSVALRIEEGLSFKEIGEIIGSSEGAARVNYFHGIRRLRELL”, which “soluble fraction (log2)” value is on record?
**A.** -0.789

**Q.** With “HMAELAKAKLDAAVQVALLKAGALDTDYLAYKLQGMDGVALDDKGSLTGWDTTLETLKSQYPTQFA” as the sequence, how does the “soluble fraction (log2)” value read?
**A.** -0.368

**Q.** Which “soluble fraction (log2)” value does the source give for “HMASIATLTVKALGGASDVVIRDKDGRIIWADRLPAGQSHRVFGHAPFNVAASHASRVQLSLLGKDVGRV” here?
**A.** -1.37

**Q.** For “HMKIAPRTAENQQLRKMILEIYTTSKKRVGPAKVRRMLLRDYGISISIGRVYRLMSTMNLPKMS”, which “soluble fraction (log2)” value is on record?
**A.** 0.0421

**Q.** Which “soluble fraction (log2)” value does the source give for “HMKFIPPSLEEARAYFVEKGSSEPEAEKFVNHFDSIGWKVGRARTPMKKWKSAANNWIANNREWNQ” here?
**A.** -0.543

**Q.** For “HMANPEFAGYINGKPYFGPTHQHRGVKMLGATHTRNPHPLVWDSIAESLANYDSRFRWSGGQIL”, which “soluble fraction (log2)” value is on record?
**A.** -0.853

**Q.** For “HMSAISSARKEKIIEYLTDHGSARSSEIAEYVDLRPSRVRDYLGELVREDIVVAEGANRNRTYRLK”, which “soluble fraction (log2)” value is on record?
**A.** -0.0533

**Q.** For “HMSVTRELMLVKVKVTPEQRAGVSAIVDIFRANIIDVGKESMIIELTGNKSKLEAFIDLLDGYEILELART”, which “soluble fraction (log2)” value is on record?
**A.** -1.46

**Q.** For “HMAPVVAILTRQLPLPQAQQLAGQTALVRVVKGGPGNEAELEFAGQNIQVKLPPGRQLTAGEMVTVAFALS”, which “soluble fraction (log2)” value is on record?
**A.** -0.762

**Q.** For “HMAKNYYEILGLKSDATLPEIKKAFKKLSKKFHPDKNRDDDGYFESMFKSINEAYQVLIDEDKRATFDSHH”, which “soluble fraction (log2)” value is on record?
**A.** -0.758

**Q.** For “HMSRARSRQTSMLEAVAGLGPARRRALLKQFGGLQGVLRAGIEDLSRAPGIGPALAQAIFEHLHPGA”, which “soluble fraction (log2)” value is on record?
**A.** -0.482
